Target: T1, heterodimeric cofactor Ufd1p/Npl4p (S. cerevisiae, UniProt P53044 1-361; P33755 1-580)
T1 sequence (looked up) 1: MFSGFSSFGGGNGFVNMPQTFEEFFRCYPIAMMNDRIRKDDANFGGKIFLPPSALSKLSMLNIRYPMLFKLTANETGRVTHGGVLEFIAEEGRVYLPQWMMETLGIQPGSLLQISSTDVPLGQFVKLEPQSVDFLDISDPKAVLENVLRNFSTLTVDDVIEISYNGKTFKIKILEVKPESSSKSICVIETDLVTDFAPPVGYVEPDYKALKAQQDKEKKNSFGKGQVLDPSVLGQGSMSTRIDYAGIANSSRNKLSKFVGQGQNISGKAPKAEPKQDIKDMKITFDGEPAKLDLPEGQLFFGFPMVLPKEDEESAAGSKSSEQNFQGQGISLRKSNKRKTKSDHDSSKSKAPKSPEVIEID
T1 sequence (looked up) 2: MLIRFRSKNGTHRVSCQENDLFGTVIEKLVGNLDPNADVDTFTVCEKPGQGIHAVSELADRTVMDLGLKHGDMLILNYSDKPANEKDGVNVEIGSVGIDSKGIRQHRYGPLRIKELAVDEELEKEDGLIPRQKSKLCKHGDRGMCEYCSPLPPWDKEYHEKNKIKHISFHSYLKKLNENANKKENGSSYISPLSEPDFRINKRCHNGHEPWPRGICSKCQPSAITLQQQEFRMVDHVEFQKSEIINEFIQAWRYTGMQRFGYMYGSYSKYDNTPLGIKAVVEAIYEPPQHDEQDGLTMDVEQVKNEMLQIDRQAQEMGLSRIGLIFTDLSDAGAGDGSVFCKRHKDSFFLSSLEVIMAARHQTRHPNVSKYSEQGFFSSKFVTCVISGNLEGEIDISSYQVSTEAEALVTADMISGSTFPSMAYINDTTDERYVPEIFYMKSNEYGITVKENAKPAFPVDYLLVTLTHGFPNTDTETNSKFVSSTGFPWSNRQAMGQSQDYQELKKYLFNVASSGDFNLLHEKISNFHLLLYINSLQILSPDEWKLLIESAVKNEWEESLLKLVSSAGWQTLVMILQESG
Test: SEC

B1: Cdc48p ATPase (enzyme, S. cerevisiae, UniProt P25694 1-835, looked up)
chain: MGEEHKPLLDASGVDPREEDKTATAILRRKKKDNMLLVDDAINDDNSVIAINSNTMDKLELFRGDTVLVKGKKRKDTVLIVLIDDELEDGACRINRVVRNNLRIRLGDLVTIHPCPDIKYATRISVLPIADTIEGITGNLFDVFLKPYFVEAYRPVRKGDHFVVRGGMRQVEFKVVDVEPEEYAVVAQDTIIHWEGEPINREDEENNMNEVGYDDIGGCRKQMAQIREMVELPLRHPQLFKAIGIKPPRGVLMYGPPGTGKTLMARAVANETGAFFFLINGPEVMSKMAGESESNLRKAFEEAEKNAPAIIFIDEIDSIAPKRDKTNGEVERRVVSQLLTLMDGMKARSNVVVIAATNRPNSIDPALRRFGRFDREVDIGIPDATGRLEVLRIHTKNMKLADDVDLEALAAETHGYVGADIASLCSEAAMQQIREKMDLIDLDEDEIDAEVLDSLGVTMDNFRFALGNSNPSALRETVVESVNVTWDDVGGLDEIKEELKETVEYPVLHPDQYTKFGLSPSKGVLFYGPPGTGKTLLAKAVATEVSANFISVKGPELLSMWYGESESNIRDIFDKARAAAPTVVFLDELDSIAKARGGSLGDAGGASDRVVNQLLTEMDGMNAKKNVFVIGATNRPDQIDPAILRPGRLDQLIYVPLPDENARLSILNAQLRKTPLEPGLELTAIAKATQGFSGADLLYIVQRAAKYAIKDSIEAHRQHEAEKEVKVEGEDVEMTDEGAKAEQEPEVDPVPYITKEHFAEAMKTAKRSVSDAELRRYEAYSQQMKASRGQFSNFNFNDAPLGTTATDNANSNNSAPSGAGAAFGSNAEEDDDLYS
- binding result: binds

Source: PMC4163015 (Cell, 2014)
